Data from paper doi:10.1101/517573.

Biological target: hSgt2 M233D (Homo sapiens) (UniProt O43765)
Experiment: pull-down

Chain of UniProt O43765 (O43765 213-313 M233D): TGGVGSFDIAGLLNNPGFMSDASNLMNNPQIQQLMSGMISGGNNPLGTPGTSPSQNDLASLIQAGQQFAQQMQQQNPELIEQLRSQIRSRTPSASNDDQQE

B1: MBP-Sbh1 full length (natural protein)
chain: MSSPTPPGGQRTLQKRKQGSSQKVAASAPKKNTNSNNSILKIYSDEATGLRVDPLVVLFLAVGFIFSVVALHVISKVAGKLF
B1 was tested, and the percent reduction of binding against wild type was 36%.
